Laboratory results taken from paper PMC3705364, “Biochemical and Electrophysiological Characterization of Two Sea Anemone Type 1 Potassium Toxins from a Geographically Distant Population of Bunodosoma caissarum” (Marine Drugs, 2013).
Where no end group is shown, it is not given here.

How the values were obtained:
rKV1.6 (rat) [1] = molecular target: rKV1.6 (rat) (UniProt P17659)
hKV1.3 [2] = molecular target: T1, hKV1.3 (Homo sapiens, UniProt P22001)
rKV1.2 (rat) [3] = molecular target: rKV1.2 (rat) (UniProt P63142)
rKV1.2 (rat), sequence (P63142 whole entry): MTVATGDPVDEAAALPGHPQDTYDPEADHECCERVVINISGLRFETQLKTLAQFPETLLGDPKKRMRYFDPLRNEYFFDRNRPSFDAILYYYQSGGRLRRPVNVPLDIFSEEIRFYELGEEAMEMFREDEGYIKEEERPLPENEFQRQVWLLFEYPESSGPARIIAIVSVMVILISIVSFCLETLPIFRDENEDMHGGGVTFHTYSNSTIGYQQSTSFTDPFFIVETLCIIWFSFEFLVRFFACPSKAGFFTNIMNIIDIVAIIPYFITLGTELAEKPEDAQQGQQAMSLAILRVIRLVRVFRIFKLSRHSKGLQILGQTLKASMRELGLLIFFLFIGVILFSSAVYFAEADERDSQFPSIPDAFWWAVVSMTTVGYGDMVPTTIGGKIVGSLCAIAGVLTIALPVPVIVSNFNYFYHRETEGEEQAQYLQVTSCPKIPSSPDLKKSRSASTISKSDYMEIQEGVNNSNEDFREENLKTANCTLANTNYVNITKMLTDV

Shaker IR (insect) [4] = molecular target: Shaker IR (insect) (UniProt P08510)
Shaker IR (insect), sequence (P08510 whole entry): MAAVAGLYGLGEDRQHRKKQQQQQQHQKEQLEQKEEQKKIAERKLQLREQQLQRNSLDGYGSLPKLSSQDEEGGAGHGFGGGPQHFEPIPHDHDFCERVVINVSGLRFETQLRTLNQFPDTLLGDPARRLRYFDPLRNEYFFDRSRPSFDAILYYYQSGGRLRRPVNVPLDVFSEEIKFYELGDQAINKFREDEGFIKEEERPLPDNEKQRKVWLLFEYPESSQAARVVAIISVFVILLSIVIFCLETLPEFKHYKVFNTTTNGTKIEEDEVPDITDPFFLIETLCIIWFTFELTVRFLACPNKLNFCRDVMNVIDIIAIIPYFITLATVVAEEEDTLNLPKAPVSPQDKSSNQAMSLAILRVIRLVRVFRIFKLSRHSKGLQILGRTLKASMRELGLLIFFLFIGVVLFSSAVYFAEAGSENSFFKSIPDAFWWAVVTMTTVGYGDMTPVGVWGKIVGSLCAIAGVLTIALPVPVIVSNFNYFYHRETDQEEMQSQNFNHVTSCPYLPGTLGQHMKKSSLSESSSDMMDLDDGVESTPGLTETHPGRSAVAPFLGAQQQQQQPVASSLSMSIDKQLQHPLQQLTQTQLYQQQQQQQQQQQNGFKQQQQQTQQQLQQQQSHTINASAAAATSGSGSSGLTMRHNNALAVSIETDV

rKV1.1 (rat) [5] = molecular target: rKV1.1 (rat) (UniProt P10499)
rKV1.1 (rat), sequence (P10499 whole entry): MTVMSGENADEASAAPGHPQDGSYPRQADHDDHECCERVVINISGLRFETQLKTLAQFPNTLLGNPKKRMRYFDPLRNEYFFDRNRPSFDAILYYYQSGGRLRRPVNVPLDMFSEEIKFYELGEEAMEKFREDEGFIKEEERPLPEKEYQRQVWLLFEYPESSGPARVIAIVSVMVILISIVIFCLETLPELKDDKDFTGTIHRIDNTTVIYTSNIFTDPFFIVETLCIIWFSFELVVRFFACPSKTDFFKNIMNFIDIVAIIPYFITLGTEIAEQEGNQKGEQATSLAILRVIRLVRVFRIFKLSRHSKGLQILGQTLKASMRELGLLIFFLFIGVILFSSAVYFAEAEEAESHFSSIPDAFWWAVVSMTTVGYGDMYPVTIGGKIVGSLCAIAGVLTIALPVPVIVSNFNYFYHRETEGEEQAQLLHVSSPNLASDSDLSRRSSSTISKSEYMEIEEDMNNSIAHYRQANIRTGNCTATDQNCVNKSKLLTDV

rKV1.6 (rat) [6] = molecular target: rKV1.6 (rat) (UniProt P17659); remark: listed apart in the source
hKV1.3 [7] = molecular target: T1, hKV1.3; remark: listed apart in the source
rKV1.2 (rat) [8] = molecular target: rKV1.2 (rat) (UniProt P63142); remark: listed apart in the source
Shaker IR (insect) [9] = molecular target: Shaker IR (insect) (UniProt P08510); remark: listed apart in the source
rKV1.1 (rat) [10] = molecular target: rKV1.1 (rat) (UniProt P10499); remark: listed apart in the source
KV1.6 = conditions: cited from earlier work
Excerpt: In order to characterize the potency and selectivity profile, concentration-response curves were constructed for BcsTx1. […] A concentration-response curve was also constructed to determine the concentration at which BcsTx2 blocked half of the channels.

KV1.3 channels = conditions: cited from earlier work
Protocol: (§1) The pharmacological profile of BcsTx-1 and -2 were determined on a wide range of twelve KV channels (rKV1.1, rKV1.2, hKV1.3, rKV1.4, rKV1.5, rKV1.6, rKV2.1, rKV3.1, rKV4.2, rKV4.3, hERG and the insect channel Shaker IR; r: rat and h: human). Channels were expressed in X. laevis oocytes, and their currents were recorded by using two-electrode voltage-clamp technique. BcsTx1 (0.5 µM) inh ...

KV1.1-4 and KV1.6 = conditions: cited from earlier work
Protocol: as §1

KV3.2 channels = conditions: cited from earlier work
[11] = test system: intermediate conductance K (Ca) channels; conditions: cited from earlier work

rKV1.6 (rat), sequence (P17659 whole entry): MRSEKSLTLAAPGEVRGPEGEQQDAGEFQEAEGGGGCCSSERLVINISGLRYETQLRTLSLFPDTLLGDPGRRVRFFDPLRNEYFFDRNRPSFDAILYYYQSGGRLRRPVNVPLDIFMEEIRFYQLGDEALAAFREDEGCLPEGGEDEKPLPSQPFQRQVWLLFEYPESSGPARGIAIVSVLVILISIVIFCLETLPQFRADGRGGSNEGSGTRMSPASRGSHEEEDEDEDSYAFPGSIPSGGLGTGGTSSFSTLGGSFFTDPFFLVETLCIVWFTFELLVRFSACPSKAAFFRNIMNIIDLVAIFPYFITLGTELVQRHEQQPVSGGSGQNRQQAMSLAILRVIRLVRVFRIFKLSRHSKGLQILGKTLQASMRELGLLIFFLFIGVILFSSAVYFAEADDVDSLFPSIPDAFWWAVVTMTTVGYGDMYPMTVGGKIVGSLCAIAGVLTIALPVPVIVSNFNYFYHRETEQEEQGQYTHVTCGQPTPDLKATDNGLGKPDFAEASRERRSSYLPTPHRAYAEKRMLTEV
T1 sequence (P22001 whole entry): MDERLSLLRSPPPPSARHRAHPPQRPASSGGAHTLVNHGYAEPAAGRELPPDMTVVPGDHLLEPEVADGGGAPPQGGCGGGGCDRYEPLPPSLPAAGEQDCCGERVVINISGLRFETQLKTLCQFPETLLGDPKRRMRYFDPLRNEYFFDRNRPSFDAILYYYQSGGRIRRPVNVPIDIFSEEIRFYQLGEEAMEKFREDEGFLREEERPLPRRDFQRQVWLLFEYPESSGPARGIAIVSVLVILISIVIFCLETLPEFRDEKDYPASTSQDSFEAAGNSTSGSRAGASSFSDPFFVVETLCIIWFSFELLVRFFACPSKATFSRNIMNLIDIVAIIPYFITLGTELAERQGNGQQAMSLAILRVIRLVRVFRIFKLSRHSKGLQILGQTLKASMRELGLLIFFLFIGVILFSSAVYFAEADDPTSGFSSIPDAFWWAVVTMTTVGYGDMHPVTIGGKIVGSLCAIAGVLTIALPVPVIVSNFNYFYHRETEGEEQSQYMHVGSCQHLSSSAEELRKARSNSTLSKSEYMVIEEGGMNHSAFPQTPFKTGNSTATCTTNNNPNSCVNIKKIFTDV

BcsTx2 (from UniProt C0HJC3 1-37) (peptide)
percent inhibition of the channel's current by 3 µM BcsTx2, two-electrode voltage clamp on X. laevis oocytes (rKV1.6 (rat) [1]): 98% | percent inhibition of the channel's current by 3 µM BcsTx2, two-electrode voltage clamp on X. laevis oocytes (hKV1.3 [2]): 100% | percent inhibition of the channel's current by 3 µM BcsTx2, two-electrode voltage clamp on X. laevis oocytes (rKV1.2 (rat) [3]): 100% | percent inhibition of the channel's current by 3 µM BcsTx2, two-electrode voltage clamp on X. laevis oocytes (Shaker IR (insect) [4]): 94% | percent inhibition of the channel's current by 3 µM BcsTx2, two-electrode voltage clamp on X. laevis oocytes (rKV1.1 (rat) [5]): 96% | IC50 of block of the channel's K+ current, two-electrode voltage clamp on X. laevis oocytes, concentration-response curve (rKV1.6 (rat) [6]): 7.76 nM | IC50 of block of the channel's K+ current, two-electrode voltage clamp on X. laevis oocytes, concentration-response curve (hKV1.3 [7]): 13.1 nM | IC50 of block of the channel's K+ current, two-electrode voltage clamp on X. laevis oocytes, concentration-response curve (rKV1.2 (rat) [8]): 80.4 nM | IC50 of block of the channel's K+ current, two-electrode voltage clamp on X. laevis oocytes, concentration-response curve (Shaker IR (insect) [9]): 49.1 nM | IC50 of block of the channel's K+ current, two-electrode voltage clamp on X. laevis oocytes, concentration-response curve (rKV1.1 (rat) [10]): 14.4 nM

MgTX: toxin from Centruroides margaritatus (TIINVKCTSPKQCLPPCKAQFGQSAGAKCMNGKCKCYPH; ends and bridges not checked; cysteine pairing not given here; UniProt P40755 1-39, looked up)
IC50 (KV1.6): 5 nM | binding affinity to KV1.6 (in words) (KV1.6): binds with very high affinity to KV1.6

ShK: type 1 sea anemone toxin from Stichodactyla helianthus (Swiss-Prot P29187)
block of KV1.3 (in words) (KV1.3 channels): block KV1.3 channels | block of KV1.1-4 and KV1.6 (in words) (KV1.1-4 and KV1.6): blocks KV1.1-4 and KV1.6 | activity against KV3.2 (in words) (KV3.2 channels): shows activity against KV3.2 channels | block of intermediate conductance K (Ca) channels (in words) [11]: block intermediate conductance K (Ca) channels
